Laboratory results: patent publication EP4725969A1 (Latticon (Suzhou) Biopharmaceuticals Co., Ltd., dated 2024)
Changes are numbered by the printed parent chain. Numbers in names are those of the source. Values belong to the binder of their own block, whether it stands above or below them.

Experiments:
[1] = molecular target: T1, recombinant human HER2 extracellular domain protein (human, UniProt P04626 23-652); experiment: BLI (ForteBio)
T1 construct: range 23-652; Range is printed for the immunogen/panning protein; also called ErbB2; recombinant HER2 protein

[2] = molecular target: T2, human HER2 expressed on tumor cells (human, UniProt P04626 23-1255); experiment: flow cytometry, RT-112 cells
T2 construct: whole, on cells; Cell line is named in each row's assay

[3] = molecular target: T1, recombinant human HER2 extracellular …; experiment: BLI, Protein A capture
[4] = molecular target: T2, human HER2 expressed on tumor cells; experiment: flow cytometry, BT474 cells
[5] = molecular target: T2, human HER2 expressed on tumor cells; experiment: flow cytometry, BT474 cells, 10 µg/mL
[6] = molecular target: T1, recombinant human HER2 extracellular …; experiment: BLI, Protein A capture; remark: listed apart in the source
[7] = molecular target: T3, recombinant human EGFR extracellular domain (human, UniProt P00533 25-645); experiment: ELISA, coated EGFR ECD
T3 construct: extracellular domain

[8] = molecular target: T4, recombinant human HER3 extracellular domain (human, UniProt P21860 20-643); experiment: ELISA, coated HER3 ECD
T4 construct: extracellular domain

[9] = molecular target: T5, recombinant human HER4 extracellular domain (human, UniProt Q15303 26-651); experiment: ELISA, coated HER4 ECD
T5 construct: extracellular domain
T5 sequence (looked up): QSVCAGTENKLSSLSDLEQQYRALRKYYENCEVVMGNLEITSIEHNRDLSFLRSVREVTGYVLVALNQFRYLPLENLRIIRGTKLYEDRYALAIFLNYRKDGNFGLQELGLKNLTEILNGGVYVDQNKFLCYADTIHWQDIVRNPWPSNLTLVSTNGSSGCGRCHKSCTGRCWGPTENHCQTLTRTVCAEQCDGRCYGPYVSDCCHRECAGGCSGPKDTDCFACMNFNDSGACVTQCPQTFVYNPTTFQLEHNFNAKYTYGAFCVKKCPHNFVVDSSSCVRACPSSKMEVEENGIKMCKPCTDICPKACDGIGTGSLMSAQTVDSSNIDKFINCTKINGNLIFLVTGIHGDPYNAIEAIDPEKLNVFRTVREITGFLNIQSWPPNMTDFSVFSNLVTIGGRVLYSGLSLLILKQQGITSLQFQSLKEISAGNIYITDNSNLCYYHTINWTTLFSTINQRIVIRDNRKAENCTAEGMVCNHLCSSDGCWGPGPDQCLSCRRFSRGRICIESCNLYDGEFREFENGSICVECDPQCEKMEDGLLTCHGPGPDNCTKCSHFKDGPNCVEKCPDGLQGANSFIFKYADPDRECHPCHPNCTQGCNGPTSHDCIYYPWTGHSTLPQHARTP

[10] = molecular target: T6, FcγRIIa (167H) (UniProt P12318 36-218, limits assumed); experiment: BLI (ForteBio)
T6 sequence (looked up): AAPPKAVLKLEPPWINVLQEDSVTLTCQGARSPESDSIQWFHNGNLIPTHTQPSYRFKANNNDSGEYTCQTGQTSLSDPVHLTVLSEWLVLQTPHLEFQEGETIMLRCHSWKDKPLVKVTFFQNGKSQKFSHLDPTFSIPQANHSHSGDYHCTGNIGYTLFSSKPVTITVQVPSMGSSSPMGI

[11] = molecular target: FcγRIIIa (176V) (UniProt P08637 17-208, limits assumed); experiment: BLI (ForteBio)
[12] = molecular target: FcγRIIIa (176F) (UniProt P08637 17-208); experiment: BLI (ForteBio)
[13] = molecular target: T7, FcγRI (UniProt P12314 16-288, limits assumed); experiment: BLI (ForteBio)
T7 construct: also called CD64

[14] = molecular target: T1, recombinant human HER2 extracellular …; experiment: BLI, Protein A capture; remark: listed apart in the source
[15] = molecular target: T1, recombinant human HER2 extracellular …; experiment: BLI, Protein A capture; remark: listed apart in the source

T7 sequence (P12314 16-288 limits assumed): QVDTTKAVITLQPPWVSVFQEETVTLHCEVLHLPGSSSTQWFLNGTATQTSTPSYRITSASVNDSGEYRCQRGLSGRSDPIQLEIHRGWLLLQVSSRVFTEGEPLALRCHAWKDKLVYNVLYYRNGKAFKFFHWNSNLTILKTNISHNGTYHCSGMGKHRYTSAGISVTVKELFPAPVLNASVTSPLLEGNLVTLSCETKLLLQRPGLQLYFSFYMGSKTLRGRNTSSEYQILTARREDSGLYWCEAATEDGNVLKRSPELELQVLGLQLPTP
Chain of FcγRIIIa (176V) (P08637 17-208 F176V limits assumed): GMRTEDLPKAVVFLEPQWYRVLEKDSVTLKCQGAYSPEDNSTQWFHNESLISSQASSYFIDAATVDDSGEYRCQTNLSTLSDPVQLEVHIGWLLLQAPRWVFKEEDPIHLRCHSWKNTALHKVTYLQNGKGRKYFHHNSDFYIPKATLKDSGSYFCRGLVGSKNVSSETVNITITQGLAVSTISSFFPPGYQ
Chain of FcγRIIIa (176F) (P08637 17-208 limits assumed): as the sequence (P08637 17-208 F176V limits assumed) above, with V160F counted along it

Kd [1]: 178 nM
koff [1]: 0.00296 s⁻¹
kon [1]: 16600 M⁻¹ s⁻¹
EC50 [2]: 0.0593 µg/mL
Kd [3]: 11.4 nM
koff [3]: 0.00105 s⁻¹
kon [3]: 91700 M⁻¹ s⁻¹
EC50 [4]: 0.107 µg/mL
B1: Hu2117HK (Fc fusion)
scFv: EVQLVESGGGLVQPGGSLRLSCAASGFTYSSYGMSWVRQAPGKGLEWVASISGGGSYTKYPDSVKGRFTISRDNSKNTLYLQMNSLRAEDTAVYYCARDYAGFFDVWGQGTLVTVSSGGGGSGGGGSGGGGSDIQMTQSPSSLSASVGDRVTITCRSSQSLVHSNGNTYLHWYQQKPGKAPKLLIYKVSNRFSGVPSRFSGSGSGTDFTLTISSLQPEDFATYFCSQSTHVPYTFGQGTKVEIK
notes: Hu2117-H1 + Hu2117-K1; also called hu2117-H1K1; humanized single-chain antibody Hu2117HK; not shown: human IgG1 Fc

EC50 [2]: 0.0622 µg/mL
EC50 [4]: 0.0922 µg/mL
B2: Hu2117-HK304 (Fc fusion)
scFv: B1 scFv with S56N, T58A, P61V, D62P, A101V, G166R
notes: scFv-hIgG1 Fc; not shown: human IgG1 Fc

EC50 [2]: 0.157 µg/mL
EC50 [4]: 0.103 µg/mL
B3: Hu2117-HK310 (Fc fusion)
scFv: B1 scFv with S56N, T58A, P61V, S63N, A101V, G166R
notes: as for B2

EC50 [2]: 0.0956 µg/mL
EC50 [4]: 0.103 µg/mL
B4: Hu2117-HK309 (Fc fusion)
scFv: B1 scFv with S56N, T58A, P61V, S63K, A101V, G166R
notes: as for B2

EC50 [2]: 0.129 µg/mL
EC50 [4]: 0.101 µg/mL
B5: Hu2117-HK303 (Fc fusion)
scFv: B1 scFv with S56N, T58A, P61V, D62E, A101V, G166R
notes: as for B2

EC50 [2]: 0.144 µg/mL
EC50 [4]: 0.102 µg/mL
B6: Hu2117-HK203 (Fc fusion)
scFv: B1 scFv with S56N, T58A, P61V, A101V, G166R
notes: as for B2

binding result [5]: binds
B7: Hu2117-HK201 (Fc fusion)
scFv: B1 scFv with S56N, T58A, P61V, G166R
notes: as for B2

Kd [6]: 4.28 nM
koff [6]: 0.00166 s⁻¹
kon [6]: 388000 M⁻¹ s⁻¹
binding result [7]: no binding
binding result [8]: no binding
binding result [9]: no binding
B8: mAb2117 (antibody, V domains shown)
VH: EVKIEESGGGLVKPGGSLKLSCAASGFTYSSYGMSWVRQTPEKRLEWVASISGGGSYTKYPDSVKGRFTISRDNAKNHLYLQMSSLRSEDTALYYCARDYAGFFDVWGAGTTVTVSS
VL: DVVLTQTPLSLPVSLGDQASISCRSSQSLVHSNGNTYLHWYLQKPGQSPKLLIYKVSNRFSGVPDRFSGSGSGTDFTLKISRVEAEDLGVYFCSQSTHVPYTFGGGTKLEIK
notes: also called anti-HER2 chimeric antibody mAb2117

binding result [7]: no binding
binding result [10]: no binding
binding result [11]: no binding
binding result [12]: no binding
binding result [13]: no binding
binding result [8]: no binding
binding result [9]: no binding
B9: 04BS-1123-ST06 (bispecific antibody)
heavy: QVQLVESGGGLVQPGGSLRLSCAASGFTYSSYGMSWVRQAPGKGLEWVASISGGGSYTKYVDKVKGRFTISRDNSKNTLYLQMNSLRAEDTAVYYCARDYVGFFDVWGQGTLVTVSSGGGGSQVQLVQSGSELKKPGASVKVSCKASGYTFTDYSMHWVRQAPGQGLEWMGWINTGTGEPTYADDFKGRFTISRDTSKSTAYLQISSLKAEDTAVYYCVRVGRYDYAMDYWGQGTTVTVSSASTKGPSVFPLAPSSKSTSGGTAALGCLVKDYFPEPVTVSWNSGALTSGVHTFPAVLQSSGLYSLSSVVTVPSSSLGTQTYICNVNHKPSNTKVDKRVEPKSCDKTHTCPPCPAPEFEGGPSVFLFPPKPKDTLMISRTPEVTCVVVDVSHEDPEVKFNWYVDGVEVHNAKTKPREEQYNSTYRVVSVLTVLHQDWLNGKEYKCKVSNKALPASIEKTISKAKGQPREPQVYTLPPSRDELTKNQVSLTCLVKGFYPSDIAVEWESNGQPENNYKTTPPVLDSDGSFFLYSKLTVDKSRWQQGNVFSCSVMHEALHNHYTQKSLSLSPGK
light: DIQMTQSPSSLSASVGDRVTITCRSSQSLVHSNRNTYLHWYQQKPGKAPKLLIYKVSNRFSGVPSRFSGSGSGTDFTLTISSLQPEDFATYFCSQSTHVPYTFGQGTKVEIKGGGGSGGGGSGGGGSDIQMTQSPSSLSASVGDRVTITCRASQDVYTAVAWYQQKPGKAPKLLINLASSRPTGVPSRFSGSGSGTDFTLTISSLQPEDFATYYCQQYYSTPPTFGGGTKVEIKRTVAAPSVFIFPPSDEQLKSGTASVVCLLNNFYPREAKVQWKVDNALQSGNSQESVTEQDSKDSTYSLSSTLTLSKADYEKHKVYACEVTHQGLSSPVTKSFNRGEC
notes: also called anti-HER2 biparatopic antibody 04BS-1123-ST06

Kd [6]: 3.44 nM
koff [6]: 0.000949 s⁻¹
kon [6]: 276000 M⁻¹ s⁻¹
binding result [7]: no binding
binding result [8]: no binding
binding result [9]: no binding
B10: mAb2128 (antibody, V domains shown)
VH: EVQLQQSGPELVKPGASVKIPCKASGYTFTDYNMDWVKQSHGKSLEWIGDINPNNGGTIYNQKFKGKATLTVDKSSSTAYMELRSLTSEDTAVYYCARYGSGYGGFAYWGQGTLVTVSS
VL: DIVLTQSPTTMAASPGEKITITCSASSSISSNYLHWYQQKPGFSPKLLIYRTSNLASGVPARFSGSGSGTSYSLTIGTMEAEDVATYYCQQGSSIPRTFGGGTKLEIK
notes: Chimeric human IgG1/Cκ

Kd [14]: 5.2 nM
koff [14]: 0.000502 s⁻¹
kon [14]: 96600 M⁻¹ s⁻¹
Kd [6]: 1.44 nM
koff [6]: 9.67e-05 s⁻¹
kon [6]: 67300 M⁻¹ s⁻¹
binding result [7]: no binding
binding result [8]: no binding
binding result [9]: no binding
B11: mAb2126 (antibody, human IgG1, V domains shown)
VH: QIQLAQSGPELKKPGETVKISCKASGYTFTDYSMHWVKQAPGKYLKWMGWINTETGEPTYADDFKGRFAFSLETSANTAYLQINNLKNEDTATYFCVRVGRYDYAMDYWGQGTSVTVSS
VL: DIVMTQSHKFMSTSVGDRVSITCKASQDVYTAVAWYQQKPGQSPKLLINSASYRYTGVPDRFTGSGSGTDFTFTISSVQAEDLAVYYCQQHYSTPPTFGGGTKLEIK
notes: also called anti-HER2 chimeric antibody mAb2126

Kd [1]: 77.2 nM
koff [1]: 0.00545 s⁻¹
kon [1]: 70600 M⁻¹ s⁻¹
B12: Mu2117KH (Fc fusion)
scFv: DVVLTQTPLSLPVSLGDQASISCRSSQSLVHSNGNTYLHWYLQKPGQSPKLLIYKVSNRFSGVPDRFSGSGSGTDFTLKISRVEAEDLGVYFCSQSTHVPYTFGGGTKLEIKGGGGSGGGGSGGGGSEVKIEESGGGLVKPGGSLKLSCAASGFTYSSYGMSWVRQTPEKRLEWVASISGGGSYTKYPDSVKGRFTISRDNAKNHLYLQMSSLRSEDTALYYCARDYAGFFDVWGAGTTVTVSS
notes: scFv-hIgG1 Fc fusion of mAb2117 V regions, VL-(G4S)3-VH; also called chimeric single-chain antibody control; not shown: human IgG1 Fc

Kd [14]: 19.1 nM
koff [14]: 0.0018 s⁻¹
kon [14]: 94500 M⁻¹ s⁻¹
B13: Hu2126-H1K1 (antibody, human IgG1, V domains shown)
VH: QVQLQESGPGLVKPSETLSLTCTASGYTFTDYSMHWVRQPPGKGLEWMGWINTETGEPTYADDFKGRFTFSLDTSKNQASLKLSSVTAADTAVYFCVRVGRYDYAMDYWGQGTTVTVSS
VL: DIQMTQSPSSLSASVGDRVTITCKASQDVYTAVAWYQQKPGKAPKLLINSASYRYTGVPSRFSGSGSGTDFTLTISSLQPEDFATYYCQQHYSTPPTFGGGTKVEIK

Kd [14]: 6.89 nM
koff [14]: 0.000581 s⁻¹
kon [14]: 84300 M⁻¹ s⁻¹
Kd [15]: 4.71 nM
koff [15]: 0.000469 s⁻¹
kon [15]: 99600 M⁻¹ s⁻¹
B14: Hu2126-H2K1 (antibody, human IgG1, V domains shown)
VH: QVQLVQSGSELKKPGASVKVSCKASGYTFTDYSMHWVRQAPGQGLEWMGWINTETGEPTYADDFKGRFVFSLDTSVSTAYLQISSLKAEDTAVYFCVRVGRYDYAMDYWGQGTTVTVSS
VL: B13 VL
